Measurements from IntAct's records for PubMed 16377563.

What was measured:
h2ax_human H2AX [1] = target: h2ax_human H2AX (UniProt P16104)
h2ax_human H2AX [2] = target: h2ax_human H2AX (UniProt P16104); remark: listed apart in the source
h2ax_human H2AX [3] = target: h2ax_human H2AX (UniProt P16104); remark: listed apart in the source

effect of a mutation on the interaction (h2ax_human H2AX [1]) | effect of a mutation on the interaction (h2ax_human H2AX [2]) | effect of a mutation on the interaction (h2ax_human H2AX [3]) | Substance
decreasing interaction | disrupting interaction |  | Mediator of DNA damage checkpoint protein 1 (Homo sapiens), Q14676 K1936M
 |  | disrupting interaction | Mediator of DNA damage checkpoint protein 1 (Homo sapiens), Q14676 R1933Q
 |  | decreasing interaction | Mediator of DNA damage checkpoint protein 1 (Homo sapiens), Q14676 T1898V
